This data set has as its system Escherichia coli TOP10. In words: shrunken log2 fold change of peptide-encoding DNA abundance (4.5 h post-induction vs induction); higher = less antimicrobial activity (less host growth inhibition). The note with it: time post-induction: 4.5 h; library: site-saturation at positions 5, 18, 19, 20.
Take RRIRQRPPRLPRPRPRPRIQPRP: the “shrunken log2 fold change” value is -0.0402.

On to RRIRGRPPRLPRPRPRPQYKPRP, for which the “shrunken log2 fold change” value was -0.136.

With RRIRGRPPRLPRPRPRPMIMPRP, the “shrunken log2 fold change” value was -0.0509. With RRIRRRPPRLPRPRPRPTLYPRP the figure was 0.595; with RRIRERPPRLPRPRPRPWWLPRP, -0.183.

Take RRIRWRPPRLPRPRPRPPPSPRP: the “shrunken log2 fold change” value was 0.794. Regarding RRIRKRPPRLPRPRPRPVNDPRP, the “shrunken log2 fold change” value came to 0.00208. On to RRIRSRPPRLPRPRPRPVIHPRP, for which the “shrunken log2 fold change” value is -0.127. Turning to RRIRNRPPRLPRPRPRPQRRPRP, the “shrunken log2 fold change” value stood at 0.135. As to RRIRTRPPRLPRPRPRPMQTPRP, the “shrunken log2 fold change” value stood at 0.0276. With RRIRARPPRLPRPRPRPAMWPRP the figure was 0.317; with RRIRYRPPRLPRPRPRPLTPPRP, 0.0282. For RRIRGRPPRLPRPRPRPKETPRP the value was -0.0578; for RRIRCRPPRLPRPRPRPHGNPRP, -0.233; for RRIRLRPPRLPRPRPRPRILPRP, -0.211. With RRIRNRPPRLPRPRPRPQTVPRP the figure was -0.0578; with RRIRYRPPRLPRPRPRPNMSPRP, -0.675; with RRIRRRPPRLPRPRPRPMLIPRP, -0.0813.

Take RRIRIRPPRLPRPRPRPLVHPRP: the “shrunken log2 fold change” value was -0.266.

RRIRERPPRLPRPRPRPECRPRP: the “shrunken log2 fold change” value was determined as 0.0354.

With RRIRKRPPRLPRPRPRPKMPPRP, the “shrunken log2 fold change” value was found to be 0.0535.

As for RRIRDRPPRLPRPRPRPLIGPRP, the “shrunken log2 fold change” value worked out at 0.239. Regarding RRIRMRPPRLPRPRPRPDARPRP, the “shrunken log2 fold change” value is -0.0547. With RRIRNRPPRLPRPRPRPPAFPRP the figure was 0.0832; with RRIRIRPPRLPRPRPRPAPQPRP, 0.363; with RRIRRRPPRLPRPRPRPRVAPRP, 0.875.

Regarding RRIRCRPPRLPRPRPRPYQYPRP, the “shrunken log2 fold change” value is -0.399. For RRIRFRPPRLPRPRPRPREEPRP the value was -0.0431; for RRIRYRPPRLPRPRPRPITHPRP, -0.211; for RRIRRRPPRLPRPRPRPYYCPRP, -0.132. Turning to RRIRDRPPRLPRPRPRPCMDPRP, the “shrunken log2 fold change” value was found to be 0.0285.

With RRIRSRPPRLPRPRPRPQMAPRP, the “shrunken log2 fold change” value is 0.0615. Consider RRIRCRPPRLPRPRPRPMKDPRP, for which the “shrunken log2 fold change” value is -0.594.

With RRIRIRPPRLPRPRPRPKRKPRP, the “shrunken log2 fold change” value is -0.105. For RRIRVRPPRLPRPRPRPRFVPRP the value was 0.12; for RRIRSRPPRLPRPRPRPLVDPRP, 0.115. For RRIRQRPPRLPRPRPRPVWNPRP, the “shrunken log2 fold change” value was -0.344. With RRIRCRPPRLPRPRPRPGYTPRP, the “shrunken log2 fold change” value amounted to 0.00337.

RRIRARPPRLPRPRPRPCCEPRP: the “shrunken log2 fold change” value is 0.512.

Regarding RRIRIRPPRLPRPRPRPFNNPRP, the “shrunken log2 fold change” value was -0.318. For RRIRGRPPRLPRPRPRPWRHPRP the value was -0.0287; for RRIRHRPPRLPRPRPRPNVFPRP, -0.116; for RRIRTRPPRLPRPRPRPYINPRP, -0.879.

For the sequence RRIRSRPPRLPRPRPRPVMPPRP, the “shrunken log2 fold change” value was -0.103. Take RRIRNRPPRLPRPRPRPWYCPRP: the “shrunken log2 fold change” value is -0.451. For RRIRARPPRLPRPRPRPGLNPRP, the “shrunken log2 fold change” value came out at 0.196.

With RRIRRRPPRLPRPRPRPINWPRP, the “shrunken log2 fold change” value is -0.0685. With RRIRCRPPRLPRPRPRPCNQPRP the figure was -0.412. With RRIRARPPRLPRPRPRPCHAPRP, the “shrunken log2 fold change” value is 0.284. For RRIRVRPPRLPRPRPRPAEHPRP the value was -0.086; for RRIRMRPPRLPRPRPRPLAYPRP, -0.093.

Turning to RRIRTRPPRLPRPRPRPFSEPRP, the “shrunken log2 fold change” value was -0.0338. Turning to RRIRDRPPRLPRPRPRPDTYPRP, the “shrunken log2 fold change” value is -0.0814. For RRIRYRPPRLPRPRPRPCSCPRP the value was -0.155.

RRIRCRPPRLPRPRPRPPPIPRP: the “shrunken log2 fold change” value was 0.998. With RRIRNRPPRLPRPRPRPGHEPRP the figure was -0.265. With RRIRWRPPRLPRPRPRPLAKPRP the figure was 0.499; with RRIRFRPPRLPRPRPRPASCPRP, 0.0375. For RRIRCRPPRLPRPRPRPNGYPRP, the “shrunken log2 fold change” value was -0.122. For RRIRHRPPRLPRPRPRPRKVPRP the value was -0.0134; for RRIRHRPPRLPRPRPRPCPWPRP, -0.168. For RRIRHRPPRLPRPRPRPCNHPRP the value was -0.292. For RRIRNRPPRLPRPRPRPTNDPRP the value was 0.0554.

Regarding RRIRNRPPRLPRPRPRPFWNPRP, the “shrunken log2 fold change” value was -0.151.

As to RRIRLRPPRLPRPRPRPDCEPRP, the “shrunken log2 fold change” value came out at 0.0566. For RRIRARPPRLPRPRPRPEWMPRP the value was 0.252. For RRIRPRPPRLPRPRPRPVEWPRP the value was 0.0458; for RRIRDRPPRLPRPRPRPITKPRP, 0.283. Take RRIRTRPPRLPRPRPRPRCPPRP: the “shrunken log2 fold change” value stood at 0.0716. In the case of RRIRKRPPRLPRPRPRPQELPRP, the “shrunken log2 fold change” value came to 0.329. With RRIRLRPPRLPRPRPRPGQQPRP the figure was -0.0555; with RRIRVRPPRLPRPRPRPFNIPRP, -0.425; with RRIRCRPPRLPRPRPRPRMVPRP, 0.205. With RRIRHRPPRLPRPRPRPCPHPRP the figure was -0.0102. For RRIRNRPPRLPRPRPRPAGPPRP the value was -0.0019; for RRIRLRPPRLPRPRPRPHQAPRP, -0.216. Consider RRIRERPPRLPRPRPRPMAQPRP, for which the “shrunken log2 fold change” value is 0.00812. With RRIRCRPPRLPRPRPRPLFAPRP the figure was 0.0307.

In the case of RRIRMRPPRLPRPRPRPRRKPRP, the “shrunken log2 fold change” value amounted to 0.416. For RRIRGRPPRLPRPRPRPYHAPRP the value was 0.142. With RRIRCRPPRLPRPRPRPWPRPRP the figure was 0.398; with RRIRCRPPRLPRPRPRPLWIPRP, -0.166; with RRIRFRPPRLPRPRPRPVMGPRP, 0.368. As for RRIRQRPPRLPRPRPRPCKDPRP, the “shrunken log2 fold change” value is -0.294.

Consider RRIRYRPPRLPRPRPRPPWRPRP, for which the “shrunken log2 fold change” value stood at 0.331. On to RRIRDRPPRLPRPRPRPCDIPRP, for which the “shrunken log2 fold change” value is -0.11. In the case of RRIRRRPPRLPRPRPRPTQQPRP, the “shrunken log2 fold change” value was found to be 0.707. For RRIRVRPPRLPRPRPRPHAVPRP the value was -0.318. For RRIRNRPPRLPRPRPRPNHYPRP the value was -0.885; for RRIRLRPPRLPRPRPRPTNGPRP, 0.129; for RRIRPRPPRLPRPRPRPCQRPRP, -0.144. Turning to RRIRHRPPRLPRPRPRPHSMPRP, the “shrunken log2 fold change” value is -0.337. For RRIRNRPPRLPRPRPRPVGKPRP the value was 0.028; for RRIRLRPPRLPRPRPRPRSCPRP, -0.0664; for RRIRNRPPRLPRPRPRPTGNPRP, -0.104.

In the case of RRIRHRPPRLPRPRPRPGDHPRP, the “shrunken log2 fold change” value is -0.00776. With RRIRTRPPRLPRPRPRPQEFPRP the figure was 0.0555; with RRIRERPPRLPRPRPRPIQYPRP, -0.163. With RRIRCRPPRLPRPRPRPTQWPRP the figure was 0.202; with RRIRSRPPRLPRPRPRPIHYPRP, -0.386; with RRIRFRPPRLPRPRPRPYRQPRP, -0.477. For RRIRHRPPRLPRPRPRPHQTPRP the value was -0.0667; for RRIRPRPPRLPRPRPRPTEYPRP, -0.264; for RRIRMRPPRLPRPRPRPLIRPRP, -0.373. Turning to RRIRIRPPRLPRPRPRPNLWPRP, the “shrunken log2 fold change” value was -0.132. In the case of RRIRKRPPRLPRPRPRPVILPRP, the “shrunken log2 fold change” value is -0.612.

On to RRIRERPPRLPRPRPRPMRHPRP, for which the “shrunken log2 fold change” value stood at 0.0434.

Regarding RRIRMRPPRLPRPRPRPAFRPRP, the “shrunken log2 fold change” value came out at 0.214.

For RRIRYRPPRLPRPRPRPVWYPRP, the “shrunken log2 fold change” value was -0.105.

As to RRIRCRPPRLPRPRPRPHADPRP, the “shrunken log2 fold change” value was 0.145. With RRIRARPPRLPRPRPRPSTGPRP, the “shrunken log2 fold change” value was -0.131. As to RRIRARPPRLPRPRPRPESLPRP, the “shrunken log2 fold change” value worked out at 0.938. With RRIRHRPPRLPRPRPRPAEQPRP the figure was 0.0649. For RRIRVRPPRLPRPRPRPHLQPRP, the “shrunken log2 fold change” value turned out to be 0.14. For RRIRKRPPRLPRPRPRPRPFPRP the value was 0.612; for RRIRNRPPRLPRPRPRPRYQPRP, -0.19. On to RRIRCRPPRLPRPRPRPRHAPRP, for which the “shrunken log2 fold change” value worked out at 0.451. For the sequence RRIRQRPPRLPRPRPRPKNPPRP, the “shrunken log2 fold change” value is -0.26. With RRIRLRPPRLPRPRPRPCYLPRP the figure was -0.856; with RRIRRRPPRLPRPRPRPSYDPRP, -0.434; with RRIRVRPPRLPRPRPRPADRPRP, 0.194. Take RRIRWRPPRLPRPRPRPRVRPRP: the “shrunken log2 fold change” value came to 0.563. With RRIRNRPPRLPRPRPRPFYWPRP the figure was -0.0682; with RRIRKRPPRLPRPRPRPMLLPRP, -0.0797; with RRIRKRPPRLPRPRPRPVAYPRP, -0.109.

The record behind these values is the supplement of paper PMC9112550, “Optimization of the antimicrobial peptide Bac7 by deep mutational scanning” (BMC Biology, 2022).
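Also: peptides expressed intracellularly from a pBAD plasmid library in pooled LB shake-flask culture, induced with 0.3% L-arabinose, DNA abundance read by NGS, three biological replicates, DESeq2 with apeglm shrinkage.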
